The values that follow come from PMC12499469.

This experiment deals with GRB2 (human (cDNA from 293T or brain glioma cells)), P62993. Put plainly: molecular recruitment colocalization (MRC), live-cell fluorescence imaging; bait fused to scFv and a fluorescent protein, recruited by dCas9-10xGCN4 (SunTag) and sgRNA MUC4-272kb to a repeated genomic locus in SunTag10x-dCas9-HEK293T cells; preys fused to mCherry or mTagBFP2 with NLS; colocalized spots imaged 24 h after transfection, 37 °C. Conditions: remark: other sources report otherwise.
GRB2 (human (cDNA from 293T or brain glioma cells)), P62993, sequence (P62993 whole entry, the tested form may be a part): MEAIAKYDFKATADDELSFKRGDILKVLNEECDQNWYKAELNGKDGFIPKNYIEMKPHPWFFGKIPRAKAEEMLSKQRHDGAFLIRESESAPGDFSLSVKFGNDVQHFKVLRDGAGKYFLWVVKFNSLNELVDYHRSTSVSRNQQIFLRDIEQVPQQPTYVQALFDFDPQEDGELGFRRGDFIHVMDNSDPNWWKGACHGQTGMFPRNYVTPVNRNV

B1: SOS1, Q07889 1-1333 (natural protein)
chain: MQAQQLPYEFFSEENAPKWRGLLVPALKKVQGQVHPTLESNDDALQYVEELILQLLNMLCQAQPRSASDVEERVQKSFPHPIDKWAIADAQSAIEKRKRRNPLSLPVEKIHPLLKEVLGYKIDHQVSVYIVAVLEYISADILKLVGNYVRNIRHYEITKQDIKVAMCADKVLMDMFHQDVEDINILSLTDEEPSTSGEQTYYDLVKAFMAEIRQYIRELNLIIKVFREPFVSNSKLFSANDVENIFSRIVDIHELSVKLLGHIEDTVEMTDEGSPHPLVGSCFEDLAEELAFDPYESYARDILRPGFHDRFLSQLSKPGAALYLQSIGEGFKEAVQYVLPRLLLAPVYHCLHYFELLKQLEEKSEDQEDKECLKQAITALLNVQSGMEKICSKSLAKRRLSESACRFYSQQMKGKQLAIKKMNEIQKNIDGWEGKDIGQCCNEFIMEGTLTRVGAKHERHIFLFDGLMICCKSNHGQPRLPGASNAEYRLKEKFFMRKVQINDKDDTNEYKHAFEIILKDENSVIFSAKSAEEKNNWMAALISLQYRSTLERMLDVTMLQEEKEEQMRLPSADVYRFAEPDSEENIIFEENMQPKAGIPIIKAGTVIKLIERLTYHMYADPNFVRTFLTTYRSFCKPQELLSLIIERFEIPEPEPTEADRIAIENGDQPLSAELKRFRKEYIQPVQLRVLNVCRHWVEHHFYDFERDAYLLQRMEEFIGTVRGKAMKKWVESITKIIQRKKIARDNGPGHNITFQSSPPTVEWHISRPGHIETFDLLTLHPIEIARQLTLLESDLYRAVQPSELVGSVWTKEDKEINSPNLLKMIRHTTNLTLWFEKCIVETENLEERVAVVSRIIEILQVFQELNNFNGVLEVVSAMNSSPVYRLDHTFEQIPSRQKKILEEAHELSEDHYKKYLAKLRSINPPCVPFFGIYLTNILKTEEGNPEVLKRHGKELINFSKRRKVAEITGEIQQYQNQPYCLRVESDIKRFFENLNPMGNSMEKEFTDYLFNKSLEIEPRNPKPLPRFPKKYSYPLKSPGVRPSNPRPGTMRHPTPLQQEPRKISYSRIPESETESTASAPNSPRTPLTPPPASGASSTTDVCSVFDSDHSSPFHSSNDTVFIQVTLPHGPRSASVSSISLTKGTDEVPVPPPVPPRRRPESAPAESSPSKIMSKHLDSPPAIPPRQPTSKAYSPRYSISDRTSISDPPESPPLLPPREPVRTPDVFSSSPLHLQPPPLGKKSDHGNAFFPNSPSPFTPPPPQTPSPHGTRRHLPSPPLTQEVDLHSIAGPPVPPRQSTSQHIPKLPPKTYKREHTHPSMHRDGPPLLENAHSS
As to B1, the SNR ratio (GRB2/SOS1 puncta) was determined as 1.46.
